# Substitutions are numbered along the chain they refer to.
# B1: 1.2.8 (antibody, listed as Mus musculus, V domains shown)
# VH: QIQLRESGPGLVAPSQSLSITCTVSGFSLTNYGVHWVRQPPGKGLEWLGVIWAGGSTIYNSALMSRLSISRDNSKSQVFLEMNSLQTYDTAMYYCARDRPFDGFFFSYWGQGTALTVSS
# VL: DVLMTQTPLSLPVSLGDQASISCRSSQAIVHRSGNTFLEWYLQKPGQSPKLLIYKVSNRFSGVPDRFSGSGSGTDFTLKINRVEAEDLGVYYCFQGSHVPYTFGSGTKLEIK
# B2: clone 1.4.10: anti-LNA monoclonal hybridoma antibody, VH SEQ ID NO: 65, VL SEQ ID NO: 73 (antibody, listed as Mus musculus, V domains shown)
# VH: B1 VH with T30V, V34I, S76N
# VL: B1 VL
# B3: clone 1.2.8: anti-LNA monoclonal hybridoma antibody, VH SEQ ID NO: 30, VL SEQ ID NO: 39 (antibody, listed as Mus musculus, V domains shown)
# VH: B1 VH
# VL: B1 VL
# B4: 1.4.10 (antibody, listed as Mus musculus, V domains shown)
# VH: B1 VH with T30V, V34I, S76N
# VL: B1 VL
# B5: clone 1.5.13: anti-LNA monoclonal hybridoma antibody, VH SEQ ID NO: 81, VL SEQ ID NO: 89 (antibody, listed as Mus musculus, V domains shown)
# VH: QVQLKESGPGLVAPSQSLSITCTISGFSLTTYGVHWVRQPPGMGLEWLVVIWGDGSTTYNSALRSRLSISKDNSRSQVFLKMNSLQTDDTAMYYCARHGGRYALDYWGQGTSVTVSS
# VL: DIVMTQSPATLSVTPGDRVSLSCRASQSIGGYLHWYQQKSHESPRLLIKYASQSMSGIPPRFSGSGSGSDFTLSINSVAPEDVGVYYCQAGHTFPLTFGAGTKL
# B6: 1.9.21 (antibody, V domains shown)
# VH: QVQLQQSGAELVRPGTSVKVSCKASGYAFTNYLIEWIKQRPGQGLEWIGVINPGSGGTNYNEKFRVKATLTADKSSSTAYMQLSSLTSDDSAVYFCARGGGYYWGQGTLVTVSA
# VL: DIVMTQAAPSVPVTPGESVSISCRSSKSLLHSNGNTYLFWFLQRPGQSPQVLIYRMSNLASGVPDRFSGSGSGTAFTLRISRVEAEDVGVYYCMQHLEYPYTFGSGTRLEIK
# B7: clone 1.9.21: anti-LNA monoclonal hybridoma antibody, VH SEQ ID NO: 48, VL SEQ ID NO: 57 (antibody, listed as Mus musculus, V domains shown)
# VH: B6 VH
# VL: B6 VL
# B8: 1.7.15 (antibody, V domains shown)
# VH: QVQLKQSGPSFVQPSQSLSITCTVSGFSLTTYGVHWVRQSPGKGLEWLGVIWRSGGTDYNAAFMSRLSITKDNSKSQVFFKMNSLQTDDTAIYYCTNLYYWGQGTTLTVSS
# VL: DIVMTQATFSNPVTLGTSVSISCRSSKSLLRSNGITYLYWYLQKPGQSPQLLIYQMSNLASGVPDRFSSSGSGTDFTLRISRVEAEDVGVYYCGQNLELPYTFGSGTKVEIK
# B9: clone 1.7.15: anti-LNA monoclonal hybridoma antibody, VH SEQ ID NO: 12, VL SEQ ID NO: 21 (antibody, listed as Mus musculus, V domains shown)
# VH: B8 VH
# VL: B8 VL
# Legend:
# Type in all cases: binding
# DNA1-Bi = assay: Hybridoma antibody specificity immunoassay; conditions: hybridoma antibody subclones, Table 1-4
# Text: (§1) From two selected animals, spleen cells were fused to Ag8 cells to generate antibody-producing hybridomas using state-of-the-art hybridoma cell technology. After cell fusion, hybridomas were screened for specific reactivity with LNA-containing ASOs using DNA-containing ASOs for specificity evaluation.
# (§2) In more detail, from two cell fusions, 3840 initial hybridoma clones resulting in 33 primary hybridoma clones were obtained. Thereof, 11 were selected for further characterization of binding characterization by biomolecular interaction analysis (kinetic and thermodynamic surface plasmon resonance). Five primary hybridoma clones were further processed by subcloning to generate monoclonal hybridoma cell culture clones.
# as §1, with “From immunoreactive mice (2 animals selected),” for “From two selected animals,”, “antibody-producing fusion cells” for “antibody-producing hybridomas”
# as §2, with “From two” for “In more detail, from two”, “binding properties” for “binding characterization”, “resonance). Finally, 5” for “resonance). Five”, “culture clones (Tables 1-3 and 1-4).” for “culture clones.”
# DNA2-Bi = assay: Hybridoma antibody specificity immunoassay; conditions: hybridoma antibody subclones, Table 1-4
# Text: as §1, §2
# as §1, with “From immunoreactive mice (2 animals selected),” for “From two selected animals,”, “antibody-producing fusion cells” for “antibody-producing hybridomas”
# as §2, with “From two” for “In more detail, from two”, “binding properties” for “binding characterization”, “resonance). Finally, 5” for “resonance). Five”, “culture clones (Tables 1-3 and 1-4).” for “culture clones.”
# DNA4b-Bi = assay: Hybridoma antibody specificity immunoassay; conditions: hybridoma antibody subclones, Table 1-4
# Text: as §1, §2
# as §1, with “From immunoreactive mice (2 animals selected),” for “From two selected animals,”, “antibody-producing fusion cells” for “antibody-producing hybridomas”
# as §2, with “From two” for “In more detail, from two”, “binding properties” for “binding characterization”, “resonance). Finally, 5” for “resonance). Five”, “culture clones (Tables 1-3 and 1-4).” for “culture clones.”
# LNA1-Bi = assay: Hybridoma antibody specificity immunoassay; conditions: hybridoma antibody subclones, Table 1-4
# Text: as §1, §2
# as §1, with “From immunoreactive mice (2 animals selected),” for “From two selected animals,”, “antibody-producing fusion cells” for “antibody-producing hybridomas”
# as §2, with “From two” for “In more detail, from two”, “binding properties” for “binding characterization”, “resonance). Finally, 5” for “resonance). Five”, “culture clones (Tables 1-3 and 1-4).” for “culture clones.”
# LNA2-Bi = assay: Hybridoma antibody specificity immunoassay; conditions: hybridoma antibody subclones, Table 1-4
# Text: as §1, §2
# as §1, with “From immunoreactive mice (2 animals selected),” for “From two selected animals,”, “antibody-producing fusion cells” for “antibody-producing hybridomas”
# as §2, with “From two” for “In more detail, from two”, “binding properties” for “binding characterization”, “resonance). Finally, 5” for “resonance). Five”, “culture clones (Tables 1-3 and 1-4).” for “culture clones.”
# LNA4b-Bi = assay: Hybridoma antibody specificity immunoassay; conditions: hybridoma antibody subclones, Table 1-4
# Text: as §1, §2
# as §1, with “From immunoreactive mice (2 animals selected),” for “From two selected animals,”, “antibody-producing fusion cells” for “antibody-producing hybridomas”
# as §2, with “From two” for “In more detail, from two”, “binding properties” for “binding characterization”, “resonance). Finally, 5” for “resonance). Five”, “culture clones (Tables 1-3 and 1-4).” for “culture clones.”
# DNA = assay: Epitope mapping solid phase immunoassay (ELISA); conditions: signal-to-noise (S/N) class
# Text: (§3) The epitope was mapped using immunoassays with capture molecules containing the following binding epitopes as well as combinations thereof: • LNA (2′-0,4-C-methylene), • phosphorothioate in the NA backbone, • nucleotides/sequence of bases, • DNA, • GalNAc-C6-modification.
# (§4) The results of the epitope characterization of the antibodies according to the current invention by solid phase immunoassay (ELISA) using different biotinylated LNA, PS-backbone or DNA-containing NA-oligonucleotides as outlined above are shown in FIGS. 1 to 5.
# (§5) The selected monoclonal LNA-specific Abs were further characterized for binding characteristics and epitope mapped by immunoassay using capture molecules containing the following binding epitopes and combinations thereof • LNA (2′-O.4-C-methylene) • phosphorothioate in the NA backbone • nucleotides/sequence of bases • DNA • GalNAc-C6-modification
# (§6) The results of the antibody characterization by solid phase immunoassay (ELISA) using different biotinylated LNA, PS-backbone or DNA-containing NA-oligonucleotides are shown in FIGS. 1 to 5.
# GalNAc-C6-modification = assay: Epitope mapping solid phase immunoassay (ELISA); conditions: signal-to-noise (S/N) class
# Text: as §3, §4, §5, §6
# LNA (2′-O,4-C-methylene) = assay: Epitope mapping solid phase immunoassay (ELISA); conditions: signal-to-noise (S/N) class
# Text: as §3, §4, §5, §6
# [1] = test system: LNA sequence (nucleotides/sequence of bases); assay: Epitope mapping solid phase immunoassay (ELISA); conditions: for Impact of LNA sequence: signal-to-noise (S/N) class
# Text: as §3, §4, §5, §6
# [2] = test system: Phosphorothioate Backbone; assay: Epitope mapping solid phase immunoassay (ELISA); conditions: signal-to-noise (S/N) class
# Text: as §3, §4, §5, §6
Molecule,Signal DNA1-Bi (DNA1-Bi) [OD],Signal DNA2-Bi (DNA2-Bi) [OD],Signal DNA4b-Bi (DNA4b-Bi) [OD],Signal LNA1-Bi (LNA1-Bi) [OD],Signal LNA2-Bi (LNA2-Bi) [OD],Signal LNA4b-Bi (LNA4b-Bi) [OD],Reactivity to DNA (DNA),Reactivity to GalNAc-C6-modification (GalNAc-C6-modification),"Reactivity to LNA (2′-O,4-C-methylene) (LNA (2′-O,4-C-methylene))",Impact of LNA sequence [1],Reactivity to Phosphorothioate Backbone [2],LNA sequence specificity [1]
B1,0.041,0.037,0.034,2.330,2.012,1.916,–,–,–,–,–,–
B2,–,–,–,–,–,–,− (−: S/N <2),− (−: S/N <2),− (−: S/N <2),+ (+: S/N: 3 to 5),+++ (+++: S/N ≥10),–
B3,–,–,–,–,–,–,− (−: S/N <2),− (−: S/N <2),− (−: S/N <2),− (−: S/N <2),+++ (+++: S/N ≥10),–
B4,0.084,0.049,0.038,3.398,3.154,2.977,–,–,–,–,–,–
B5,–,–,–,–,–,–,− (−: S/N <2),− (−: S/N <2),− (−: S/N <2),−/+ (−/+: S/N: 2 to 3),+++ (+++: S/N ≥10),–
B6,0.064,0.039,0.110,>4.000,>4.000,3.556,–,–,–,–,–,LNA sequence specific binders
B7,–,–,–,–,–,–,− (−: S/N <2),− (−: S/N <2),++ (++: S/N: 5 to 10),+++ (+++: S/N ≥10),+++ (+++: S/N ≥10),–
B8,0.060,0.150,0.035,2.195,2.815,>4.000,–,–,–,–,–,LNA sequence specific binders
B9,–,–,–,–,–,–,− (−: S/N <2),− (−: S/N <2),− (−: S/N <2),+++ (+++: S/N ≥10),+++ (+++: S/N ≥10),–

# — patent US20260201069A1, “ANTIBODIES THAT SPECIFICALLY BIND MODIFIED OLIGONUCLEOTIDES” (Hoffmann-La Roche Inc., priority 2024, published 2026)
